Molecular target: nectin-1 (human) (UniProt Q15223)
Assay: cell-based or functional assay

UniProt Q15223, sequence (Q15223 31-517): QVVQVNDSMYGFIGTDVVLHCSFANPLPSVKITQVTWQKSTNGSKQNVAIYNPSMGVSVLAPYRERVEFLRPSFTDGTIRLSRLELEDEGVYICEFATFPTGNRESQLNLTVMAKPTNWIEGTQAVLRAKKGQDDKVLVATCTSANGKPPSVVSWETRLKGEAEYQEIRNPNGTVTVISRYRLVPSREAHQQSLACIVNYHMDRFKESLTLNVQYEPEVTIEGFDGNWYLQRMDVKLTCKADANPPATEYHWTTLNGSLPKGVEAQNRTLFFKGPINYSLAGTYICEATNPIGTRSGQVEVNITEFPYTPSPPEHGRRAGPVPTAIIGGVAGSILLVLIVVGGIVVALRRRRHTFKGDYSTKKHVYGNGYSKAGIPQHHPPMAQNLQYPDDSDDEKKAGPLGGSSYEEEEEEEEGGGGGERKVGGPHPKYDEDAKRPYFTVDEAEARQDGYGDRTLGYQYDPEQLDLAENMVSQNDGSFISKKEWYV

“wild-type glycoprotein D (gD) of HSV-1 strain KOS” was tested. Which entry of QOZHG into J/C cells (X-gal staining at 24 hpi, MOI=10) did it give?
The entry of QOZHG into J/C cells (X-gal staining at 24 hpi, MOI=10) was 100%.

From patent publication US10328136
